Laboratory results published in patent publication US12338277.

Key:
Assay in all cases: cell-based or functional assay
[1] = biological target: HIV-1 envelope of pseudovirus 928-28 (HIV-1)
[2] = biological target: HIV-1 Env of pseudovirus ZM233M.PB6 (HIV-1)
[3] = biological target: HIV-1 envelope of pseudovirus HIV-16055-2.3 (HIV-1)
[4] = biological target: HIV-1 envelope of pseudovirus P1981_C5_3 (HIV-1)
[5] = biological target: HIV-1 Env of pseudovirus Ce1176_A3 (HIV-1)
[6] = biological target: HIV-1 envelope of pseudovirus CNE58 (HIV-1)
[7] = biological target: HIV-1 Env of pseudovirus X1193_c1 (HIV-1)
[8] = biological target: HIV-1 Env of pseudovirus 246F C1G (HIV-1)
[9] = biological target: HIV-1 Env of pseudovirus RHPA4259.7 (HIV-1)
[10] = biological target: HIV-1 Env of pseudovirus C2101.c01 (HIV-1)
[11] = biological target: HIV-1 Env of pseudovirus 9004SS_A3_4 (HIV-1)
[12] = biological target: HIV-1 envelope of pseudovirus 6545.v4.c1 (HIV-1)
[13] = biological target: HIV-1 envelope of pseudovirus Ce2010_F5 (HIV-1)
[14] = biological target: HIV-1 Env of pseudovirus CNE30 (HIV-1)
[15] = biological target: HIV-1 envelope of pseudovirus Ce0682_E4 (HIV-1)
[16] = biological target: HIV-1 envelope of pseudovirus Ce1172_H1 (HIV-1)
[17] = biological target: HIV-1 Env of pseudovirus ZM109F.PB4 (HIV-1)
[18] = biological target: HIV-1 Env of pseudovirus ZM197M.PB7 (HIV-1)
[19] = biological target: HIV-1 envelope of pseudovirus CNE21 (HIV-1)
[20] = biological target: HIV-1 Env of pseudovirus BJOX028000.10.3 (HIV-1)
[21] = biological target: HIV-1 Env of pseudovirus REJO4541.67 (HIV-1)
[22] = biological target: HIV-1 envelope of pseudovirus 1394C9G1(Rev-) (HIV-1)
[23] = biological target: HIV-1 Env of pseudovirus CAP210.2.00.E8 (HIV-1)
[24] = biological target: HIV-1 envelope of pseudovirus 211-9 (HIV-1)
[25] = biological target: HIV-1 Env of pseudovirus 231966.c02 (HIV-1)
[26] = biological target: HIV-1 envelope of pseudovirus BJOX028000.10.3 (HIV-1)
[27] = biological target: HIV-1 envelope of pseudovirus Ce1176_A3 (HIV-1)
[28] = biological target: HIV-1 envelope of pseudovirus Q769.d22 (HIV-1)
[29] = biological target: HIV-1 Env of pseudovirus AC10.0.29 (HIV-1)
[30] = biological target: HIV-1 envelope of pseudovirus T257-31 (HIV-1)
[31] = biological target: HIV-1 Env of pseudovirus X1632_S2_B10 (HIV-1)
[32] = biological target: HIV-1 Env of pseudovirus CNE17 (HIV-1)
[33] = biological target: HIV-1 Env of pseudovirus Du156.12 (HIV-1)
[34] = biological target: HIV-1 envelope of pseudovirus Q259.d2.17 (HIV-1)
[35] = biological target: HIV-1 Env of pseudovirus Q259.d2.17 (HIV-1)
[36] = biological target: HIV-1 Env of pseudovirus BJOX015000.11.5 (HIV-1)
[37] = biological target: HIV-1 envelope spike of pseudovirus BaL.26 (HIV-1)
[38] = biological target: HIV-1 Env of pseudovirus T251-18 (HIV-1)
[39] = biological target: HIV-1 envelope of pseudovirus 3016.v5.c45 (HIV-1)
[40] = biological target: HIV-1 envelope of pseudovirus BJOX009000.02.4 (HIV-1)
[41] = biological target: HIV-1 Env of pseudovirus Ce1172_H1 (HIV-1)
[42] = biological target: HIV-1 Env of pseudovirus 6244_13_85_4576 (HIV-1)
[43] = biological target: HIV-1 envelope of pseudovirus 620345.c01 (HIV-1)
[44] = biological target: HIV-1 envelope of pseudovirus 0260.v5.c36 (HIV-1)
[45] = biological target: HIV-1 envelope of pseudovirus AC10.0.29 (HIV-1)
[46] = biological target: HIV-1 envelope spike of pseudovirus CAAN5342.A2 (HIV-1)
[47] = biological target: HIV-1 envelope of pseudovirus 89-F1_2_25 (HIV-1)
[48] = biological target: HIV-1 envelope spike of pseudovirus R1166.c1 (HIV-1)
[49] = biological target: HIV-1 envelope of pseudovirus CAP210.2.00.E8 (HIV-1)
[50] = biological target: HIV-1 envelope of pseudovirus 249M B10 (HIV-1)

Chain of 10-996 (antibody) (VH): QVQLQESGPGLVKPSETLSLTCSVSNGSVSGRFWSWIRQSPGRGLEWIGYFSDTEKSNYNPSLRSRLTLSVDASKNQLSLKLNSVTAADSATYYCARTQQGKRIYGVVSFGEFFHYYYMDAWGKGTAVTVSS
Chain of 10-996 (antibody) (VL): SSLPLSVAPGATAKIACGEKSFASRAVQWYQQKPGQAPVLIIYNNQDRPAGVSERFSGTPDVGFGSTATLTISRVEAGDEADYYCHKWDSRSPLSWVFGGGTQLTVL

10-996 (antibody) was tested, and the IC50 (TZM-bl neutralization) [1] was 1.33 µg/mL, the IC80 (TZM-bl neutralization) [2] was 4.52 µg/mL and the IC50 (TZM-bl neutralization) [3] was > 50 µg/mL. It also gave an IC50 (TZM-bl neutralization) [4] of 0.005 µg/mL, an IC80 (TZM-bl neutralization) [5] of 0.151 µg/mL and an IC50 (TZM-bl neutralization) [6] of 0.57 µg/mL. For the same substance, the IC80 (TZM-bl neutralization) [7] was 0.482 µg/mL, the IC80 (TZM-bl neutralization) [8] was 0.27 µg/mL and the IC80 (TZM-bl neutralization) [9] was 0.163 µg/mL. For the same substance, the IC80 (TZM-bl neutralization) [10] was > 50 µg/mL, the IC80 (TZM-bl neutralization) [11] was 0.05 µg/mL and the IC50 (TZM-bl neutralization) [12] was > 50 µg/mL. The IC50 (TZM-bl neutralization) [13] was > 50 µg/mL, the IC80 (TZM-bl neutralization) [14] was 1.99 µg/mL and the IC50 (TZM-bl neutralization) [15] was > 50 µg/mL. The IC50 (TZM-bl neutralization) [16] was 0.058 µg/mL, the IC80 (TZM-bl neutralization) [17] was > 50 µg/mL and the IC80 (TZM-bl neutralization) [18] was > 50 µg/mL. For the same substance, the IC50 (TZM-bl neutralization) [19] was 0.086 µg/mL, the IC80 (TZM-bl neutralization) [20] was > 50 µg/mL and the IC80 (TZM-bl neutralization) [21] was > 50 µg/mL. The IC50 (TZM-bl neutralization) [22] was 0.086 µg/mL, the IC80 (TZM-bl neutralization) [23] was > 50 µg/mL and the IC50 (TZM-bl neutralization) [24] was 0.75 µg/mL. For the same substance, the IC80 (TZM-bl neutralization) [25] was > 50 µg/mL, the IC50 (TZM-bl neutralization) [26] was > 50 µg/mL and the IC50 (TZM-bl neutralization) [27] was 0.043 µg/mL. The IC50 (TZM-bl neutralization) [28] was > 50 µg/mL, the IC80 (TZM-bl neutralization) [29] was 0.25 µg/mL and the IC50 (TZM-bl neutralization) [30] was > 50 µg/mL. The IC80 (TZM-bl neutralization) [31] was > 50 µg/mL, the IC80 (TZM-bl neutralization) [32] was 24.7 µg/mL and the IC80 (TZM-bl neutralization) [33] was 0.101 µg/mL. For the same substance, the IC50 (TZM-bl neutralization) [34] was > 50 µg/mL, the IC80 (TZM-bl neutralization) [35] was > 50 µg/mL and the IC80 (TZM-bl neutralization) [36] was > 50 µg/mL. For the same substance, the IC50 (TZM-bl neutralization assay) [37] was 0.045 µg/mL, the IC80 (TZM-bl neutralization assay) [37] was 0.228 µg/mL and the IC80 (TZM-bl neutralization) [38] was 7.4 µg/mL. For the same substance, the IC50 (TZM-bl neutralization) [39] was > 50 µg/mL, the IC50 (TZM-bl neutralization) [40] was > 50 µg/mL and the IC80 (TZM-bl neutralization) [41] was 0.173 µg/mL. The IC80 (TZM-bl neutralization) [42] was 1.3 µg/mL, the IC50 (TZM-bl neutralization) [43] was > 50 µg/mL and the IC50 (TZM-bl neutralization) [44] was 0.16 µg/mL. It also gave an IC50 (TZM-bl neutralization) [45] of 0.067 µg/mL, an IC50 (TZM-bl neutralization assay) [46] of 0.007 µg/mL and an IC80 (TZM-bl neutralization assay) [46] of 0.06 µg/mL. For the same substance, the IC50 (TZM-bl neutralization) [47] was > 50 µg/mL, the IC50 (TZM-bl neutralization assay) [48] was > 40 µg/mL and the IC80 (TZM-bl neutralization assay) [48] was > 40 µg/mL. The IC50 (TZM-bl neutralization) [49] was 24.8 µg/mL and the IC50 (TZM-bl neutralization) [50] was > 50 µg/mL.

For PGT121 (antibody), the IC50 (TZM-bl neutralization) [1] was > 50 µg/mL, the IC80 (TZM-bl neutralization) [2] was 8.98 µg/mL and the IC50 (TZM-bl neutralization) [3] was 0.444 µg/mL. The IC50 (TZM-bl neutralization) [4] was 0.004 µg/mL, the IC80 (TZM-bl neutralization) [5] was 0.058 µg/mL and the IC50 (TZM-bl neutralization) [6] was > 50 µg/mL. The IC80 (TZM-bl neutralization) [7] was 0.202 µg/mL, the IC80 (TZM-bl neutralization) [8] was 0.287 µg/mL and the IC80 (TZM-bl neutralization) [9] was 0.054 µg/mL. The IC80 (TZM-bl neutralization) [10] was > 50 µg/mL, the IC80 (TZM-bl neutralization) [11] was 0.026 µg/mL and the IC50 (TZM-bl neutralization) [12] was > 50 µg/mL. The IC50 (TZM-bl neutralization) [13] was > 50 µg/mL, the IC80 (TZM-bl neutralization) [14] was 0.559 µg/mL and the IC50 (TZM-bl neutralization) [15] was > 50 µg/mL. For the same substance, the IC50 (TZM-bl neutralization) [16] was 0.023 µg/mL, the IC80 (TZM-bl neutralization) [17] was > 50 µg/mL and the IC80 (TZM-bl neutralization) [18] was > 50 µg/mL. For the same substance, the IC50 (TZM-bl neutralization) [19] was 0.02 µg/mL, the IC80 (TZM-bl neutralization) [20] was > 50 µg/mL and the IC80 (TZM-bl neutralization) [21] was > 50 µg/mL. For the same substance, the IC50 (TZM-bl neutralization) [22] was 0.486 µg/mL, the IC80 (TZM-bl neutralization) [23] was > 50 µg/mL and the IC50 (TZM-bl neutralization) [24] was 1.46 µg/mL. The IC80 (TZM-bl neutralization) [25] was > 50 µg/mL, the IC50 (TZM-bl neutralization) [26] was > 50 µg/mL and the IC50 (TZM-bl neutralization) [27] was 0.017 µg/mL. For the same substance, the IC50 (TZM-bl neutralization) [28] was > 50 µg/mL, the IC80 (TZM-bl neutralization) [29] was 0.169 µg/mL and the IC50 (TZM-bl neutralization) [30] was > 50 µg/mL. The IC80 (TZM-bl neutralization) [31] was > 50 µg/mL, the IC80 (TZM-bl neutralization) [32] was > 50 µg/mL and the IC80 (TZM-bl neutralization) [33] was 0.033 µg/mL. The IC50 (TZM-bl neutralization) [34] was 8.99 µg/mL, the IC80 (TZM-bl neutralization) [35] was > 50 µg/mL and the IC80 (TZM-bl neutralization) [36] was > 50 µg/mL. The IC50 (TZM-bl neutralization assay) [37] was 0.021 µg/mL, the IC80 (TZM-bl neutralization assay) [37] was 0.081 µg/mL and the IC80 (TZM-bl neutralization) [38] was > 50 µg/mL. For the same substance, the IC50 (TZM-bl neutralization) [39] was > 50 µg/mL, the IC50 (TZM-bl neutralization) [40] was 3.63 µg/mL and the IC80 (TZM-bl neutralization) [41] was 0.088 µg/mL. For the same substance, the IC80 (TZM-bl neutralization) [42] was 1.88 µg/mL, the IC50 (TZM-bl neutralization) [43] was > 50 µg/mL and the IC50 (TZM-bl neutralization) [44] was 0.054 µg/mL. It also gave an IC50 (TZM-bl neutralization) [45] of 0.037 µg/mL, an IC50 (TZM-bl neutralization assay) [46] of 0.013 µg/mL and an IC80 (TZM-bl neutralization assay) [46] of 0.056 µg/mL. For the same substance, the IC50 (TZM-bl neutralization) [47] was > 50 µg/mL, the IC50 (TZM-bl neutralization assay) [48] was > 40 µg/mL and the IC80 (TZM-bl neutralization assay) [48] was > 40 µg/mL. The IC50 (TZM-bl neutralization) [49] was 5.08 µg/mL and the IC50 (TZM-bl neutralization) [50] was > 50 µg/mL.
